The target of this experiment is recombinant full-length IsdB, Q2FHV2. The experiment is described as follows: ELISA. Conditions: chain shown with the change. A general note: An ELISA detects its analyte on a solid surface through an enzyme-linked reagent.

B1: D4-10-N1 antibody (human IgG) H:Y52A; H:F53A (protein)
chain 1: QVQLQESGPGLVKPSETLSLICTVSGGSISSSSYYWGWIRQTPERNLEWIGIIAASGTTYYNPSLQSRVSMSLDRSTNRFSLRLSSVTAADTAIYYCAKPKSRDRGGPGDDYFGMDVWGQGIMVTVSS
chain 2: DIQLTQSPSFLSASVADRVTITCRASQAVRSSLAWYQQKPGKAPQLLIYSASTLENGVSSRFSGSGPGTEFTLTISSLQPEDVGTYYCQQLNTYPFTFGPGTKVEIK
Regarding B1, the percent of parent came to 9%.
